From the supplement of paper PMC9170038

System: MS2 coat protein
Test: apparent KD of MS2 coat protein; higher = weaker reporter binding
Settings: Eterna round: R107
Experimental: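 RNA-MaP round R107: designed RNA switches with theophylline, tryptophan, arginine or FMN aptamers are transcribed on-chip within common flanks. They are titrated with SNAP-549-labelled MS2 coat protein in RNA-MaP buffer (100 mM Tris pH 7.5, 80 mM KCl, 4 mM MgCl2), without ligand or with the indicated ligand. Median apparent KD per design.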

[1] = input ligand: theophylline 20 uM
[2] = input ligand: theophylline 2 mM
[3] = input ligand: tryptophan 2.4 mM

Row | Sequence | apparent KD of MS2 coat protein (input ligand: arginine 13.2 mM) [nM] | apparent KD of MS2 coat protein (input ligand: none) [nM] | apparent KD of MS2 coat protein [1] [nM] | apparent KD of MS2 coat protein [2] [nM] | apparent KD of MS2 coat protein [3] [nM]
1 | UGUAUGUGAUUUGAUACCAGACCAGCUGGUGGUACACGAGGAUCACCCGUGUAGGUUUGGGUCCCUUGGCAGCAAAUCGCAUACU [SS Theo B #24 Ms3] | 53.7 | 56.8 | 68.7 | 18.1 | 54.5
2 | GAUUGCAUCGAUUCUCCACUCGCACCUGAUACCAGCGAUAGAAUUCGCCCUUGGCAGCAGUACACAUGAGGAUCACCCAUGUUAU [theeternabot_exclusion_MS2_Theo_A_20] | 25.5 |  | 42.4 |  | 35
3 | GAGGGUGGGUCUCUAAUCCGUUUGACGGAUACCAGCGAGAGAUAUCGCCCUUGGCAGCCGACGACAUGAGGAUCACCCAUGUAAA [#06 Exclusion-TheophyllineA] | 17.1 |  | 19.6 |  | 16.9
4 | UUGGUUAUGCGAAGGAGCGGGAAAUAUAUAUAUAUAAUCCUAACAUGAGGAUCACCCAUGUCCCAGGUAGGUCGCGCAUAGUUGG [12.I] | 45.2 | 69.5 | 80.3 | 83.3 | 69.1
5 | AUAACAGUGUCGGCCGCCACUAGAACACAUGAGGAUCACCCAUGUGGUGGUACCUCCUAAGACGAUAGGACCGGGACCCAUCUAC [theeternabot_exclusion_MS2_Trp_B_12] | 50.4 |  | 108 | 143 | 
6 | AUGCAUAGCACGGCCGCCACUCCAUGUAAACAUGAGGAUCACCCAUGUAAUUUGGAUGUUUUAUAGAGGACCGGGUGAAAUGCAA [JR_ExcTryptoB_Sub004] | 8.42 |  | 10.1 | 10.3 | 
7 | CAGUCAGUCAGUCAAUGAGUGAGGCAUGAAGGAGCGUGGGAAACCACAGGUAGGUCGCAUGCGGAACAUGAGGAUCACCCAUGUU [SSArg A #4] | 31.9 | 27.2 | 26.2 | 26.8 | 27.7
8 | CUCGGAACAAUCGAUACCAGUUCUCAUGGAUUGCAGCAGUACAUGAGGAUCACCCAUGUAAACCCUUGGCAGCGAAGAACAAGAC [theeternabot_exclusion_MS2_Theo_B_18] | 26 |  | 48.2 |  | 33.4
9 | UGGUAGCCACACUUCAAACAUCGACAAGAUACCAGUUAAUCAACGAACCCUUGGCAGCUUCGUACAUGAGGAUCACCCAUGUGGA [theeternabot_exclusion_MS2_Theo_A_6] | 18.2 |  | 24.2 |  | 19.5
10 | AGACAUGUAAGAUAAAUGACUUAUACAGAUACCAGACUGUCUAAUGUCCCUUGGCAGCUGCAUAACAUGAGGAUCACCCAUGUAA [JR_ExcTheophyA_Sub010] | 22.3 |  | 24.2 |  | 26.9
11 | AAUCAUGGAAACAUGACAUGAGGGUUACUCCGAGGACCGGUACGGCCGCCACUCGCGAGGAGGCGGACAUGAGGAUCACCCAUGU [#04 Tryptophan A Same State] | 32.4 | 392 | 240 | 260 | 41.6
12 | GCUAGGUCUACGGCCGCCACUAGACGUGGGUUAAACAUGAGGAUCACCCAUGUGCUACAGGCGCAUAGGACCGGGUAGACCUAGC [SSTB NP+V+V2 #9 +-Same Structure] | 86.5 | 494 | 586 | 696 | 63.7
13 | ACCUACACGGAAACGUGUAGAAGUAAUGAUACCAGCAUGGAAACAUGCCCUUGGCAGCGUUACAUGAGGAUCACCCAUGUAUGUU [#01 Exclusion-TheophyllineA] | 16.4 |  | 19.9 |  | 15.4
14 | CAUGAAGUAACUGAUACCAGUGUACACAUGAGGAUCACCCAUGUGUUGGGUUUUGUUGUACACCCUUGGCAGCAGAAUCUUUAUG [AstrosExyTheB#8] | 42.4 |  | 84.3 |  | 51.2
15 | AAAUCAGUCUGAAGGAGCGUCACAUGAGGAUCACCCAUGUACAUGAGGAUCACCCAUGUGUGACAGGUAGGUCGCAGAGGAUACC [Exclusion Arginine B GF 4] | 125 | 169 | 168 | 207 | 213
16 | CGUAUGUAGACGGCCGCCACUGGAACCUGAGGAUCACCCAGGUACAGGGUGGGUAACUCGAGAGUCAGGACCGGGUCUACAUACA [Tryp B Ex t3] | 19.4 | 42 | 65.1 | 64.3 | 38.6
17 | ACAUGAGGAUCACCCAUGUACAUAAGGGAAGGAGCGCGGUGGAACGCAGGUAGGUCGCCCAUAAUAACAAUAAAUAAAUUCAUGU [#04 Same State - Arginine A] | 14.7 | 14.7 | 23.6 | 17.5 | 16.5
18 | UUAUCUAUAUUCGAUACCAGUACCCUGGCCGCAAAUCCUAACAUGAGGAUCACCCAUGUGUACCCUUGGCAGCGGGUAUGGGUUU [XTheo B #29] | 21.5 |  | 35.1 |  | 24.2
19 | UAACAUGAGGAUCACCCAUGUAUACUAAGUCGAGGACCGGUACGGCCGCCACUCGAAAUUGAAGAAUUGGCGGUAAAUGUAAGUA [JR_ExcTryptoA_Sub019] | 12.6 |  | 15.9 | 14.3 | 

Row | Sequence | apparent KD of MS2 coat protein (input ligand: arginine 13.2 mM) [nM] | apparent KD of MS2 coat protein (input ligand: none) [nM] | apparent KD of MS2 coat protein [1] [nM] | apparent KD of MS2 coat protein [2] [nM] | apparent KD of MS2 coat protein [3] [nM]
20 | UGUACAUGAGGAUCACCCAUGUUACAUGAUACCAGACAUGAGAGUGUCCCUUGGCAGCAUGGAGCUGAUACGGCGGGAAGCCGGA [#09 SameState-TheophyllineA] | 26.1 |  | 40.4 |  | 27
21 | ACAGGUACGCCUAUUAAAAUAAAACACCUACGAGGACCGGUACGGCCGCCACUCGGGUGACAUGAGGAUCACCCAUGUGGCUAAA [Ceeron] | 101 |  | 610 | 851 | 
22 | GUACAUGAGGAUCACCCAUGUAUAGUUGAAGGAGCGACCGGUGGGUCAGGUAGGUCGCAGCGCAUGGCGUCAACCCGUGUAUGCC [#1 Exclusion - Arginine A Attempt #27 (Inspired by Pi)] | 13.8 | 17.2 | 24.8 | 21 | 17.9
23 | GUUUUGGGAUCGGCCGCCACUACAUGAGGAUCACCCAUGUGGACAAAUAGGGUUUUUAAGCUCGGUAGGACCGGGAUUCGAACAU [Abeis] | 15.4 |  | 19 | 17.5 | 
24 | ACAUGAGGAUCACCCAUGUAAUGGCACGAUACCAGCUGAUCCCGUGGCCCUUGGCAGCGUCCGGUGUGGUCCGCCGGGUUGGAGC [DDDMULLIN] | 28.7 |  | 39.5 |  | 27
25 | UUAAUCUUAGAAGAAAACUUUUAAGCAGAAGGAGCGUGAUAAAACACAGGUAGGUCGCUGAAGGGAACAUGAGGAUCACCCAUGU [AstrosSSArgA#18] | 29.3 | 22 | 28.9 | 29.4 | 23.1
26 | GUUGGUUUGCGAAGGAGCGGGUAUGUUGUCUACUUGAUCCUAACAUGAGGAUCACCCAUGUCCCAGGUAGGUCGCGCGGGCUUUG [12.aC] | 37 | 45.1 | 63.9 | 81 | 46.8
27 | AAAGUUGAUGAGUUGUGUUUGUGUUCGGAAGGAGCGGGAAUUAUCUCAGGUAGGUCGCCGAACAUGAGGAUCACCCAUGUAUAAA [XArg-A 18 NuV2 original #dotplot2>1] | 40.2 | 98.7 | 80.1 | 206 | 82.6
28 | AUUAUCGUAGGUUAAAGUUUAGAAACUGAAGGAGCGUGGUAUUACACAGGUAGGUCGCAGAUUUUACAUGAGGAUCACCCAUGUU [JR_ExcArginiA_Sub010] | 21.3 | 22.4 | 26.3 | 25.1 | 21.5
29 | UGUAUGGACUGAAGGAGCGGAAGAUACCAUGAGGAUCACCCAUGGAAUAAGGCGAAAGCCUUCCAGGUAGGUCGCAGUCCAUACU | 16.1 | 18.3 | 23.9 | 23.9 | 19.8
30 | GAUAUGGAAACAUGUCAGAUCCUUACCGGUCGAGGACCGGUACGGCCGCCACUCGGAAAUAUUGUACAUGAGGAUCACCCAUGUA [Ex Tryptophan A 18] | 14.1 |  | 16.1 | 16.1 | 
31 | GGGUCAGGCGCGGCCGCCACUGCGGUGAUGUGACAUGAGGAUCACCCAUGUUGUCAUGUGGCACAUAGGACCGGGCGCCUGGCCC [#1 Exclusion - Tryptophan B Attempt #7 (HarryS)] | 25.4 |  | 41.5 | 33.2 | 
32 | ACAUGAGGAUCACCCAUGUGCAGAACGGAUACCAGCGUGCUGGUACGCCCUUGGCAGCCGGACAUGAGGAUCACCCAUGUGUGGA [Exclusion Theophylline A GF28] | 32.1 | 42.1 | 55.7 | 164 | 66
33 | UGAUACCAGUCGGCCGCCACUAUGCUAGAUACUAGCAAUAAAUGGGAACAUGAGGAUCACCCAUGUAGGACCGGGACUGGUAUCU | 32.1 | 33.6 | 42.9 | 42.7 | 64
34 | ACUAGUUGUGCAGAUACCAGACAUGAGGAUCACCCAUGUUUGGGUUGUUCGCAACUUCCUGUCCCUUGGCAGCUGUACAUCUAGA [Omei Theo B Exc v5] | 18.9 |  | 46.9 |  | 24.3
35 | AAUAAUAAGGCGGCCGCCACUAAACAUGAGGAUCACCCAUGUCUCGAGGGCUUGCGUUGGGAAAGUAGGACCGGGCCAAUAAUAA [Exclusion - Tryptophan B (Freestyle 7)] | 10.2 | 18.7 | 20.5 | 14.9 | 13.3
36 | ACAUGAGGAUCACCCAUGUGAAGCAGGGUACGAGGACCGGUACGGCCGCCACUCGAGGAUUAUGCCGAGUGAAUGGCAACGAUGU [whbob_Ex_trypto A_2s19] |  |  | 22.7 | 16.2 | 
37 | GCAUCCUAGUCGGCCGCCACUACAACAUGAGGAUCACCCAUGUGUGGGAGAUCCGUCCUACGAAGUAGGACCGGGACUAGGAUGC [(T1)-(M1)-(M2)-(T)''-(M)'-(T)'-(T2)_Design5_2/18/17] | 110 |  | 337 | 324 | 
38 | UUCGUUUACGGAAGGAGCGACGGACAUCGGUGAUCUAUGCACAUGAGGAUCACCCAUGUACGUCAGGUAGGUCGCCGUUAAGAGU [XArg-B28] | 28.4 | 80.8 | 96.5 | 184 | 9.59
